Data: article PMC5339343, “Evaluation of Rint1 as a modifier of intestinal tumorigenesis and cancer risk” (PLoS ONE, 2017)

Experiments:
[1] = biological target: T1, FLAG-tagged full-length human RINT1 I152M (human, UniProt Q6NUQ1 1-792, I152M); test: co-IP; FLAG-RINT1 plasmids co-transfected with the UVRAG plasmid into HEK293T; lysate in TNE buffer (10 mM Tris acetate, 0.5% NP-40, 2 mM EDTA); anti-FLAG M2 affinity gel overnight, eluted with FLAG peptide; blot for UVRAG, quantified; conditions: partners not purified
T1 construct: The change copies a variant of the B6 mouse Rint1 allele into human RINT1; The results sentence on UVRAG prints I152T; the methods made only I152M; also called RINT1 n.456A>G (I152M); RINT1 I152M allele; source: HEK293T, transfected, in lysate
T1 sequence (Q6NUQ1 whole entry I152M): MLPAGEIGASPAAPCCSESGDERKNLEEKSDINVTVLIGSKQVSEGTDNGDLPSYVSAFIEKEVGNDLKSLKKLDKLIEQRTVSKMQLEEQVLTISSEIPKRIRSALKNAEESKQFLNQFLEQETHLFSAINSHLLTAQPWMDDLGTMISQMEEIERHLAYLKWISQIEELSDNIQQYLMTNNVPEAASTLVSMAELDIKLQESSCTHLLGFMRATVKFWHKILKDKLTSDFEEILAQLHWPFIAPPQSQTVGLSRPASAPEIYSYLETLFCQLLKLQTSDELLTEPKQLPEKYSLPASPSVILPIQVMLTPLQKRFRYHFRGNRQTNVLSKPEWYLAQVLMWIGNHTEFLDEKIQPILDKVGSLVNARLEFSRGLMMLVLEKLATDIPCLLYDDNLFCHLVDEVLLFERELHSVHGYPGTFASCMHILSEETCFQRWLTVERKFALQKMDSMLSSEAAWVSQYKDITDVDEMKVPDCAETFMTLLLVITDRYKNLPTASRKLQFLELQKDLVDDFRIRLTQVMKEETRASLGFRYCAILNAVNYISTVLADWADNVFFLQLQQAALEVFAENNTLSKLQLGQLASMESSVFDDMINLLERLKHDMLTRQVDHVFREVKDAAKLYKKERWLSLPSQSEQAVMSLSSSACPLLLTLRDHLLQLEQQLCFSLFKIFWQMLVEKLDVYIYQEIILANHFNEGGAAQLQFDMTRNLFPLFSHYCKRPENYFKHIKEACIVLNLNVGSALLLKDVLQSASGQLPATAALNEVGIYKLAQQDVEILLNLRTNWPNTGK

[2] = biological target: T2, FLAG-tagged full-length human RINT1 I152M; I168T (human, UniProt Q6NUQ1 1-792, I152M | I168T); test: as above; conditions: partners not purified
T2 construct: The results sentence on UVRAG prints I152T;I168T; the methods made only I152M and I168T together; also called RINT1 n.456A>G; n.503T>C (I152M and I168T); source: HEK293T, transfected, in lysate
T2 sequence (Q6NUQ1 whole entry I152M/I168T): as the sequence (Q6NUQ1 whole entry I152M) above, with I168T counted along it

fold change of UVRAG co-immunoprecipitation against wild-type RINT1 [1]: ≥ 2 fold
fold change of UVRAG co-immunoprecipitation against wild-type RINT1 [2]: ≥ 2 fold
B1: UVRAG expressed from pCl-neo-HA-hUVRAG (natural protein, human, UniProt Q9P2Y5 1-699, looked up)
chain: MSASASVGGPVPQPPPGPAAALPPGSAARALHVELPSQQRRLRHLRNIAARNIVNRNGHQLLDTYFTLHLCSTEKIYKEFYRSEVIKNSLNPTWRSLDFGIMPDRLDTSVSCFVVKIWGGKENIYQLLIEWKVCLDGLKYLGQQIHARNQNEIIFGLNDGYYGAPFEHKGYSNAQKTILLQVDQNCVRNSYDVFSLLRLHRAQCAIKQTQVTVQKIGKEIEEKLRLTSTSNELKKKSECLQLKILVLQNELERQKKALGREVALLHKQQIALQDKGSAFSAEHLKLQLQKESLNELRKECTAKRELFLKTNAQLTIRCRQLLSELSYIYPIDLNEHKDYFVCGVKLPNSEDFQAKDDGSIAVALGYTAHLVSMISFFLQVPLRYPIIHKGSRSTIKDNINDKLTEKEREFPLYPKGGEKLQFDYGVYLLNKNIAQLRYQHGLGTPDLRQTLPNLKNFMEHGLMVRCDRHHTSSAIPVPKRQSSIFGGADVGFSGGIPSPDKGHRKRASSENERLQYKTPPPSYNSALAQPVTTVPSMGETERKITSLSSSLDTSLDFSKENKKKGEDLVGSLNGGHANVHPSQEQGEALSGHRATVNGTLLPSEQAGSASVQLPGEFHPVSEAELCCTVEQAEEIIGLEATGFASGDQLEAFNCIPVDSAVAVECDEQVLGEFEEFSRRIYALNENVSSFRRPRRSSDK
notes: UVRAG, human (hUVRAG), from the plasmid pCl-neo-HA-hUVRAG (Itakura et al. 2008); Detected with an anti-UVRAG antibody; source: HEK293T, transfected, in lysate
